The source of these data is US7067619 (LA JOLLA CANCER RESEARCH FOUNDATION, dated 2006).

Bridge positions count the residues as written; N and C are the ends. Ends that are not written are not given here. * marks the point of attachment. Cam = NC(=O)C*

Test [1] concerns the target T1, α5β1 integrin isolated from human placental extract (human, UniProt P08648 42-1049; P05556 21-798).
T1 construct: coated on plastic wells or captured by anti-α5 antibody; also called fibronectin receptor
The experiment in a line: phage panning on coated integrin. As for the experimental part: In the first panning, the integrins were coated at 5 µg per well, and the library pool was incubated for 4 hours at 25° C. in TBS buffer containing 1% bovine serum albumin and 1 mM MnCl_2 (α_5β_1, α_vβ_3) 1 mM MgCl_2 ($\alphaIIb\beta_3$) or 1 mM CaCl_2 (α_vβ_5).

In test [2] the target is T1, α5β1 integrin isolated from human …. As to the kind of experiment: phage panning on coated integrin. This is another data set of the same source.
Test [3] deals with α5β1 integrin composed of human α5 and CHO β1 on B2/α27 cells (human; Chinese hamster (CHO), UniProt P08648 42-1049). As to the kind of experiment: cell-based or functional assay.
Chain of α5β1 integrin composed of human α5 and CHO β1 on B2/α27 cells (P08648 42-1049): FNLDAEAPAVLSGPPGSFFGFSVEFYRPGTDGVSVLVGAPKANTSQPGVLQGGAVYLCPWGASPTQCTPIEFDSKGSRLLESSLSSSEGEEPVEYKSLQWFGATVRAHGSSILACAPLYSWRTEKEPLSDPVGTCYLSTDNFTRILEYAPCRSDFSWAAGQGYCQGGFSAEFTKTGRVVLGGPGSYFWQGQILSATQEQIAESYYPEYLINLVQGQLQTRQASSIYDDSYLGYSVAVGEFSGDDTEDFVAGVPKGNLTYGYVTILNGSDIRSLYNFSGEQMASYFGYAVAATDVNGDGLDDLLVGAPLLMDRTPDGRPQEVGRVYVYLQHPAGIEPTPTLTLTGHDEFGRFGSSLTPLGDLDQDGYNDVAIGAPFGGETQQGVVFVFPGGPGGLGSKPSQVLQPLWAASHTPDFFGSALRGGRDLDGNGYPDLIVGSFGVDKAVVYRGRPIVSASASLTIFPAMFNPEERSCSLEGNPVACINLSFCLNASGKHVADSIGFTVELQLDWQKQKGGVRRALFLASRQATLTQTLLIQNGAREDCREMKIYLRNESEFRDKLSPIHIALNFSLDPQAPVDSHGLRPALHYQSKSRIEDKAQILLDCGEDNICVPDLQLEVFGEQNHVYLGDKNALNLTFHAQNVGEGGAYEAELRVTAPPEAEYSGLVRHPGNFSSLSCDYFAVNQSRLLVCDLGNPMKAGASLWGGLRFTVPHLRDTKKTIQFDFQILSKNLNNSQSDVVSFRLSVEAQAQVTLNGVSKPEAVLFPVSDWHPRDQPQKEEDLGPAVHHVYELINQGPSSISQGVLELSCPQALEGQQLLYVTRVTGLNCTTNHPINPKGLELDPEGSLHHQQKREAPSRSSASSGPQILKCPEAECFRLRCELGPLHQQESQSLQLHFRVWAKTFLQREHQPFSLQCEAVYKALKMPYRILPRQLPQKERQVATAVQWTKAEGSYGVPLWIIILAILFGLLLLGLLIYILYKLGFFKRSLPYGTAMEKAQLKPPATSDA
Test [4] addresses αvβ1 integrin on CHO cell line B2/v7. As to the kind of experiment: cell-based or functional assay.
Test [5] concerns the target T2, αvβ3 integrin isolated from human placental extract (human, UniProt P06756 31-1048; P05106 27-788).
T2 construct: isolated on GRGDSPK-Sepharose; said to be primarily αvβ3
As to the kind of experiment: competition with CRGDCL phage on αvβ3-coated wells. As to the method:
The ability of […] […] [SEQ ID NO:5] was added to compete for binding. Binding was quantitated as described above.

In test [6] the target is T1, α5β1 integrin isolated from human …. As to the kind of experiment: competition with RRETAWA phage on α5β1-coated wells.
For test [7], the target named is T2, αvβ3 integrin isolated from human …. The experiment in a line: affinity chromatography of placental extract.

T1 sequence (P08648 42-1049, chain 1 of 2): as the sequence (P08648 42-1049) above
T1 sequence (P05556 21-798, chain 2 of 2): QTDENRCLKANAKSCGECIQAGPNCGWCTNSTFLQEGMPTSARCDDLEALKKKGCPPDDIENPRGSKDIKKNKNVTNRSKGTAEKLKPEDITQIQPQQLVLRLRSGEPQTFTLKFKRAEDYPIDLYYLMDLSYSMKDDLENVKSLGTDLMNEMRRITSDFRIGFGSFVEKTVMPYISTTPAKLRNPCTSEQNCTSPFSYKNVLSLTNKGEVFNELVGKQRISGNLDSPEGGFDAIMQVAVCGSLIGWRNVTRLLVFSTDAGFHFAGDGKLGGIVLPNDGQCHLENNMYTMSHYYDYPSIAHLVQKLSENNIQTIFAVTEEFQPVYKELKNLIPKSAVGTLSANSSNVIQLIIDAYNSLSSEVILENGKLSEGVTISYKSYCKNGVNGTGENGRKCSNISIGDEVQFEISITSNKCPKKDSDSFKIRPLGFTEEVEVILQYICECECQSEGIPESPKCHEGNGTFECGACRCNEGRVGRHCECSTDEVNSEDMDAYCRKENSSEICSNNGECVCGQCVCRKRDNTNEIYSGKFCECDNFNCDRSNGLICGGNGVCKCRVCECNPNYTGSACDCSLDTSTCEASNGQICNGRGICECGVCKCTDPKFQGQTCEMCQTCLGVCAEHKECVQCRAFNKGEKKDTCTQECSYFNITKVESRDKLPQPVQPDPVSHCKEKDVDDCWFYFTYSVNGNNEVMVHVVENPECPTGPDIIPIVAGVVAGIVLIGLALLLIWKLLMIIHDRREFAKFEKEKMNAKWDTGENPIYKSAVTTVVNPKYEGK
T2 sequence (P06756 31-1048, chain 1 of 2): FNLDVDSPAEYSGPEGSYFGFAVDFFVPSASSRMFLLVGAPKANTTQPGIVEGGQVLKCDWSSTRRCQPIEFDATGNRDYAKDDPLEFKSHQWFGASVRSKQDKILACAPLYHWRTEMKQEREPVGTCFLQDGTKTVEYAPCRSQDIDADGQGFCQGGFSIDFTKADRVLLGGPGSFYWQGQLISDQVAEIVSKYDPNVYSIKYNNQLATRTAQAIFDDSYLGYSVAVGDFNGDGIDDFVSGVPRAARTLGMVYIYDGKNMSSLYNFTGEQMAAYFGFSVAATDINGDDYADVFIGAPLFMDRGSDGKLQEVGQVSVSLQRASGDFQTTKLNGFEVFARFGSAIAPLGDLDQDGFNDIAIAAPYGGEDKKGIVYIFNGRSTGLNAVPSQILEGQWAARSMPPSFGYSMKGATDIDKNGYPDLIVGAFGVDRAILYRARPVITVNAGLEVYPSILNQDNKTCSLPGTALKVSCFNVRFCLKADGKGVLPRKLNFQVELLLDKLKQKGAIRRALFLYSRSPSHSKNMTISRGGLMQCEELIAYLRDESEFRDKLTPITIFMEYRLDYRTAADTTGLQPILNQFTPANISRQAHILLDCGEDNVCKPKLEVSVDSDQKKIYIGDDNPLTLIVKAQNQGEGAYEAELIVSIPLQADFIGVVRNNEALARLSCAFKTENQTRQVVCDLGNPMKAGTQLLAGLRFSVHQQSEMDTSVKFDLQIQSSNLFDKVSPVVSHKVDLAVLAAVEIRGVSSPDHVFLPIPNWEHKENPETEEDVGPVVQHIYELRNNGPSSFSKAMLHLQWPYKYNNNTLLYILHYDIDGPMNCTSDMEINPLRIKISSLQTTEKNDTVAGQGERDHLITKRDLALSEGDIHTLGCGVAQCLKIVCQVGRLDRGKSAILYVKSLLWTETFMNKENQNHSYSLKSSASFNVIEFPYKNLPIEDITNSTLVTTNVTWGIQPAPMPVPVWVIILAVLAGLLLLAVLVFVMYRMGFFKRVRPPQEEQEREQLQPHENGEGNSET
T2 sequence (P05106 27-788, chain 2 of 2): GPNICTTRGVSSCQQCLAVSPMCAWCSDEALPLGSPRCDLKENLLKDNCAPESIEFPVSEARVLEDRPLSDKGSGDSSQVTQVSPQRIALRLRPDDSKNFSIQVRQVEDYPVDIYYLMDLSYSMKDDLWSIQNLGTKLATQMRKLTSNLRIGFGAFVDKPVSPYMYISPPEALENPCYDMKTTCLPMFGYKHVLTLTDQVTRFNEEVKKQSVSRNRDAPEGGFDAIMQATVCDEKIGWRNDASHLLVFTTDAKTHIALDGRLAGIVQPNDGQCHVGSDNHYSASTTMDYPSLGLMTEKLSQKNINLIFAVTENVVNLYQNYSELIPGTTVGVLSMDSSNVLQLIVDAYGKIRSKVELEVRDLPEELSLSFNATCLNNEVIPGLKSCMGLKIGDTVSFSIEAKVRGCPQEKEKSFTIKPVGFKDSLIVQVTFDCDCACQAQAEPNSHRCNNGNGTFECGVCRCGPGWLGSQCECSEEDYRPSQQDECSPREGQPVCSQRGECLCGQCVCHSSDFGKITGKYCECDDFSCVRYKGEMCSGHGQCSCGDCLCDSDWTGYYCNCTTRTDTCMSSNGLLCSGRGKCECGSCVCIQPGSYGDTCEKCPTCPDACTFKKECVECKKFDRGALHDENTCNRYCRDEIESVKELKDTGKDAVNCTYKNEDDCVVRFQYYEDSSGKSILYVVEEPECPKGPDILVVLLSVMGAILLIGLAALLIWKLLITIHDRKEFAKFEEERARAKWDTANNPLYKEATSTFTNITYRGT

B1: CMWLSVNYSC phage (peptide)
peptide: CMWLSVNYSC
notes: on fuse 5 phage, fused to pIII
For the molecule B1, the binding result in test [1] is “binds”.

B2: WCRRETNWAC phage (peptide)
peptide: WCRRETNWAC
notes: as for B1
With B2, the binding result in test [2] is “binds”.

B3: CKWRSARDLC phage (peptide)
peptide: CKWRSARDLC
notes: as for B1
As to B3, in test [1], the binding result is “binds”.

B4: CGADSEEGPC phage (peptide)
peptide: CGADSEEGPC
notes: as for B1
On to B4, for which the binding result in test [1] is “binds”.

B5: cyclic peptide GACRRETAWACGA (peptide)
peptide: GACRRETAWACGA
modifications: disulfide 3-11 (inferred)
Take B5: in test [3], the “IC50 of inhibition of cell attachment to fibronectin (B2/α27 cells)” value worked out at 30 µM. Also, in test [4], the “fold less active than the cyclic RGD peptide, inhibition of cell attachment to fibronectin” value was greater than 100 × and the “fold less active than …, inhibition of cell attachment to fibronectin” value was roughly 40 ×.

B6: CRSETYWKC phage (peptide)
peptide: CRSETYWKC
notes: as for B1
For the molecule B6, the binding result in test [2] was “binds”.

B7: YCRPETAWAC phage (peptide)
peptide: YCRPETAWAC
notes: as for B1
B7: the binding result in test [2] was “binds”.

B8: CRGDGWC phage (peptide)
peptide: CRGDGWC
modifications: disulfide 1-7 (inferred)
notes: on fuse 5 phage, fused to pIII; also called phage expressing the peptide A*CRGDGWC*G; not shown: The pIII coat protein of the fuse 5 phage vector and its junction residues
For B8, the binding result in test [1] was “binds”.

B9: CRGDGFC phage (peptide)
peptide: CRGDGFC
modifications: disulfide 1-7 (inferred)
notes: on fuse 5 phage, fused to pIII; not shown: The pIII coat protein of the fuse 5 phage vector and its junction residues
As to B9, the binding result in test [1] is on record as “binds”.

B10: cyclic peptide GACRGDCLGA (peptide)
peptide: GACRGDCLGA
modifications: disulfide 3-7 (inferred)
notes: synthetic; also called cyclic CRGDCL peptide
Consider B10, for which the binding result in test [5] and in test [6] was “binds” in each case.

B11: SCRRETQWHC phage (peptide)
peptide: SCRRETQWHC
notes: as for B1
With B11, the binding result in test [2] is given as “binds”.

B12: WCRPETGWRC phage (peptide)
peptide: WCRPETGWRC
notes: as for B1
Turning to B12, in test [2], the binding result is on record as “binds”.

B13: SCRDETLWWC phage (peptide)
peptide: SCRDETLWWC
notes: as for B1
As to B13, the binding result in test [2] is “binds”.

B14: DCRHETAWAC phage (peptide)
peptide: DCRHETAWAC
notes: as for B1
For B14, the binding result in test [2] is on record as “binds”.

B15: DCRRETAWRC phage (peptide)
peptide: DCRRETAWRC
notes: as for B1
For the molecule B15, in test [2], the binding result was “binds”.

B16: SCREETGWGC phage (peptide)
peptide: SCREETGWGC
notes: as for B1
As to B16, the binding result in test [2] is “binds”.

B17: RCRAETGWAC phage (peptide)
peptide: RCRAETGWAC
notes: as for B1
On to B17, for which, in test [2], the binding result is reported as “binds”.

B18: CREQPASRSC phage (peptide)
peptide: CREQPASRSC
notes: as for B1
As for B18, in test [1], the binding result is “binds”.

B19: SCRAETAWMC phage (peptide)
peptide: SCRAETAWMC
notes: as for B1
Take B19: the binding result in test [2] is recorded as “binds”.

B20: CVDCILRYLC phage (peptide)
peptide: CVDCILRYLC
notes: as for B1
With B20, the binding result in test [1] is listed as “binds”.

B21: GACRRETAWACGA linearized by reduction and alkylation (peptide)
peptide: GAC(Cam)RRETAWAC(Cam)GA
As for B21, the “fold reduction of activity against the cyclic peptide, cell attachment to fibronectin” value in test [3] is roughly 50 ×.

B22: WCREETGWWC phage (peptide)
peptide: WCREETGWWC
notes: as for B1
On to B22, for which the binding result in test [2] is reported as “binds”.

B23: CRRETAWAC phage (peptide)
peptide: CRRETAWAC
notes: as for B1
Regarding B23, the binding result in test [2] is reported as “binds”.

B24: DCRRETSWAC phage (peptide)
peptide: DCRRETSWAC
notes: as for B1
B24: the binding result in test [2] is recorded as “binds”.

B25: ECRRETAWAC phage (peptide)
peptide: ECRRETAWAC
notes: as for B1
Consider B25, for which the binding result in test [2] was “binds”.

B26: ECRRETAWWC phage (peptide)
peptide: ECRRETAWWC
notes: as for B1
Take B26: the binding result in test [2] is “binds”.

B27: GCRRETAWAC phage (peptide)
peptide: GCRRETAWAC
notes: as for B1
Take B27: the binding result in test [2] was “binds”.

B28: ECRRETAWGC phage (peptide)
peptide: ECRRETAWGC
notes: as for B1
On to B28, for which the binding result in test [2] is “binds”.

B29: HCRRETAWAC phage (peptide)
peptide: HCRRETAWAC
notes: as for B1
For B29, the binding result in test [2] is on record as “binds”.

B30: ECRRETAWSC phage (peptide)
peptide: ECRRETAWSC
notes: as for B1
In the case of B30, in test [2], the binding result is reported as “binds”.

B31: VCRKETAWAC phage (peptide)
peptide: VCRKETAWAC
notes: as for B1
In the case of B31, the binding result in test [2] is “binds”.

B32: GCRRETEWAC phage (peptide)
peptide: GCRRETEWAC
notes: as for B1
With B32, the binding result in test [2] is on record as “binds”.

B33: ACRRETAWAC phage (peptide)
peptide: ACRRETAWAC
notes: as for B1
On to B33, for which the binding result in test [2] was “binds”.

B34: GCRKETAWAC phage (peptide)
peptide: GCRKETAWAC
notes: as for B1
On to B34, for which the binding result in test [2] is listed as “binds”.

B35: Sepharose-coupled GRGDSPK peptide (peptide)
peptide: GRGDSPK
modifications: also: coupled to Sepharose
notes: also called GRGDSPK peptide column
As to B35, the binding result in test [7] is recorded as “binds”.

B36: cyclic peptide GAC*ELRGDGWC*GA (peptide)
peptide: GACELRGDGWCGA
modifications: disulfide 3-11 (inferred)
In the case of B36, in test [3], the “fold less active than A*CRGDGWC*G, cell attachment to fibronectin” value came to 10 fold.

B37: RCREETAWAC phage (peptide)
peptide: RCREETAWAC
notes: as for B1
On to B37, for which the binding result in test [2] was “binds”.

B38: RCRSETAWAC phage (peptide)
peptide: RCRSETAWAC
notes: as for B1
With B38, in test [2], the binding result is listed as “binds”.

B39: RCREETLWAC phage (peptide)
peptide: RCREETLWAC
notes: as for B1
As for B39, the binding result in test [2] is given as “binds”.

B40: WCRGETAWAC phage (peptide)
peptide: WCRGETAWAC
notes: as for B1
B40: the binding result in test [2] is given as “binds”.

B41: ACRAETAWRC phage (peptide)
peptide: ACRAETAWRC
notes: as for B1
On to B41, for which the binding result in test [2] is “binds”.

B42: GCREETAWQC phage (peptide)
peptide: GCREETAWQC
notes: as for B1
For the molecule B42, the binding result in test [2] is listed as “binds”.

B43: PCREETAWRC phage (peptide)
peptide: PCREETAWRC
notes: as for B1
For the molecule B43, the binding result in test [2] is “binds”.
